The target of one assay is human glucagon receptor (human, UniProt P47871 26-477). Nature of the assay: cell-based or functional assay.
The target of another assay is human GLP-1 receptor (human, UniProt P43220 24-463). Nature of the assay: cell-based or functional assay.

*1 amine or outer side, *2 acyl side, *3 side chain or, on linkers, in order; H or OH if unused. Where no end group is shown, it is not given here. Side-chain parts run from the residue outwards. [ ]: non-standard residue; d: D form. The star is where a group is joined. γGlu = O=C(O)[C@H](CCC(=O)[*:2])N[*:1]; Palmitoyl = CCCCCCCCCCCCCCCC(=O)*; Aib = CC(C)(N)C(=O)O

human glucagon receptor, sequence (P47871 26-477): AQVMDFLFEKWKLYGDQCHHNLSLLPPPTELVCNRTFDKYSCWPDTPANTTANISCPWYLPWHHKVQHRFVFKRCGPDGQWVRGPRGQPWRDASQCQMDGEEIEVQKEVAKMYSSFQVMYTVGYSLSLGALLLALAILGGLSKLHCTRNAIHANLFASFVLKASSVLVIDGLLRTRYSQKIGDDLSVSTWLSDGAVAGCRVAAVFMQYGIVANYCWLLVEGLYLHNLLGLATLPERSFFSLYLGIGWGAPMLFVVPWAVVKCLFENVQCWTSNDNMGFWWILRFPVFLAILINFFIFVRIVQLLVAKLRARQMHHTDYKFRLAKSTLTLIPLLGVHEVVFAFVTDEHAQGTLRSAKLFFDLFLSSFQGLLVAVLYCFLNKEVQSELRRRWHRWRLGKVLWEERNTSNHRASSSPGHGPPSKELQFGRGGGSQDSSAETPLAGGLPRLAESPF

B1: SEQ ID NO: (111) (peptide)
peptide: H[dS]QGTFTSDLSKQMES[Aib]AAQDFIEWLKAGGPSSGAPPPSK([γGlu-Palmitoyl])-NH2
modifications: N-terminus assumed
SMILES: CCCCCCCCCCCCCCCC(=O)N[C@@H](CCC(=O)NCCCC[C@H](NC(=O)[C@H](CO)NC(=O)[C@@H]1CCCN1C(=O)[C@@H]1CCCN1C(=O)[C@@H]1CCCN1C(=O)[C@H](C)NC(=O)CNC(=O)[C@H](CO)NC(=O)[C@H](CO)NC(=O)[C@@H]1CCCN1C(=O)CNC(=O)CNC(=O)[C@H](C)NC(=O)[C@H](CCCCN)NC(=O)[C@H](CC(C)C)NC(=O)[C@H](Cc1c[nH]c2ccccc12)NC(=O)[C@H](CCC(=O)O)NC(=O)[C@@H](NC(=O)[C@H](Cc1ccccc1)NC(=O)[C@H](CC(=O)O)NC(=O)[C@H](CCC(N)=O)NC(=O)[C@H](C)NC(=O)[C@H](C)NC(=O)C(C)(C)NC(=O)[C@H](CO)NC(=O)[C@H](CCC(=O)O)NC(=O)[C@H](CCSC)NC(=O)[C@H](CCC(N)=O)NC(=O)[C@H](CCCCN)NC(=O)[C@H](CO)NC(=O)[C@H](CC(C)C)NC(=O)[C@H](CC(=O)O)NC(=O)[C@H](CO)NC(=O)[C@@H](NC(=O)[C@H](Cc1ccccc1)NC(=O)[C@@H](NC(=O)CNC(=O)[C@H](CCC(N)=O)NC(=O)[C@@H](CO)NC(=O)[C@@H](N)Cc1c[nH]cn1)[C@@H](C)O)[C@@H](C)O)[C@@H](C)CC)C(N)=O)C(=O)O
As to B1, the “EC50 hGlucagonR (cAMP formation)” value with human glucagon receptor came out at 0.206 nM. For the same molecule, the “EC50 hGLP-1R (cAMP formation)” value with human GLP-1 receptor amounted to 0.0041 nM.

B2: SEQ ID NO: (113) (peptide)
peptide: H[dS]QGTFTSDLSKQMEEEAAKLFIEWLKAGGPSSGAPPPSK([γGlu-Palmitoyl])-NH2
modifications: N-terminus assumed
SMILES: CCCCCCCCCCCCCCCC(=O)N[C@@H](CCC(=O)NCCCC[C@H](NC(=O)[C@H](CO)NC(=O)[C@@H]1CCCN1C(=O)[C@@H]1CCCN1C(=O)[C@@H]1CCCN1C(=O)[C@H](C)NC(=O)CNC(=O)[C@H](CO)NC(=O)[C@H](CO)NC(=O)[C@@H]1CCCN1C(=O)CNC(=O)CNC(=O)[C@H](C)NC(=O)[C@H](CCCCN)NC(=O)[C@H](CC(C)C)NC(=O)[C@H](Cc1c[nH]c2ccccc12)NC(=O)[C@H](CCC(=O)O)NC(=O)[C@@H](NC(=O)[C@H](Cc1ccccc1)NC(=O)[C@H](CC(C)C)NC(=O)[C@H](CCCCN)NC(=O)[C@H](C)NC(=O)[C@H](C)NC(=O)[C@H](CCC(=O)O)NC(=O)[C@H](CCC(=O)O)NC(=O)[C@H](CCC(=O)O)NC(=O)[C@H](CCSC)NC(=O)[C@H](CCC(N)=O)NC(=O)[C@H](CCCCN)NC(=O)[C@H](CO)NC(=O)[C@H](CC(C)C)NC(=O)[C@H](CC(=O)O)NC(=O)[C@H](CO)NC(=O)[C@@H](NC(=O)[C@H](Cc1ccccc1)NC(=O)[C@@H](NC(=O)CNC(=O)[C@H](CCC(N)=O)NC(=O)[C@@H](CO)NC(=O)[C@@H](N)Cc1c[nH]cn1)[C@@H](C)O)[C@@H](C)O)[C@@H](C)CC)C(N)=O)C(=O)O
B2: the “EC50 hGlucagonR (cAMP formation)” value in the assay with human glucagon receptor is 0.311 nM. Further, the “EC50 hGLP-1R (cAMP formation)” value with human GLP-1 receptor is 0.002 nM.

B3: SEQ ID NO: (115) (peptide)
peptide: H[dS]QGTFTSDLSKQMEEEAA[Aib]DFIEWLKAGGPSSGAPPPSK([γGlu-Palmitoyl])-NH2
modifications: N-terminus assumed
SMILES: CCCCCCCCCCCCCCCC(=O)N[C@@H](CCC(=O)NCCCC[C@H](NC(=O)[C@H](CO)NC(=O)[C@@H]1CCCN1C(=O)[C@@H]1CCCN1C(=O)[C@@H]1CCCN1C(=O)[C@H](C)NC(=O)CNC(=O)[C@H](CO)NC(=O)[C@H](CO)NC(=O)[C@@H]1CCCN1C(=O)CNC(=O)CNC(=O)[C@H](C)NC(=O)[C@H](CCCCN)NC(=O)[C@H](CC(C)C)NC(=O)[C@H](Cc1c[nH]c2ccccc12)NC(=O)[C@H](CCC(=O)O)NC(=O)[C@@H](NC(=O)[C@H](Cc1ccccc1)NC(=O)[C@H](CC(=O)O)NC(=O)C(C)(C)NC(=O)[C@H](C)NC(=O)[C@H](C)NC(=O)[C@H](CCC(=O)O)NC(=O)[C@H](CCC(=O)O)NC(=O)[C@H](CCC(=O)O)NC(=O)[C@H](CCSC)NC(=O)[C@H](CCC(N)=O)NC(=O)[C@H](CCCCN)NC(=O)[C@H](CO)NC(=O)[C@H](CC(C)C)NC(=O)[C@H](CC(=O)O)NC(=O)[C@H](CO)NC(=O)[C@@H](NC(=O)[C@H](Cc1ccccc1)NC(=O)[C@@H](NC(=O)CNC(=O)[C@H](CCC(N)=O)NC(=O)[C@@H](CO)NC(=O)[C@@H](N)Cc1c[nH]cn1)[C@@H](C)O)[C@@H](C)O)[C@@H](C)CC)C(N)=O)C(=O)O
For B3, in the assay with human glucagon receptor, the “EC50 hGlucagonR (cAMP formation)” value was 0.175 nM. For the same molecule, the “EC50 hGLP-1R (cAMP formation)” value with human GLP-1 receptor is 0.0007 nM.

Turning to HSQGTFTSDLSKQMEEERAKDFIEWLKNGGPSSGAPPPS-NH2 [SEQ ID NO: (17)], the “EC50 hGlucagonR (cAMP formation)” value with human glucagon receptor turned out to be 3.36 nM. The “EC50 hGLP-1R (cAMP formation)” value with human GLP-1 receptor was 0.0241 nM.

B4: SEQ ID NO: (110) (peptide)
peptide: H[dS]QGTFTSDLSKQMEEEAAKDFIEWLKAGGPSSGAPPPSK([γGlu-Palmitoyl])-NH2
modifications: N-terminus assumed
SMILES: CCCCCCCCCCCCCCCC(=O)N[C@@H](CCC(=O)NCCCC[C@H](NC(=O)[C@H](CO)NC(=O)[C@@H]1CCCN1C(=O)[C@@H]1CCCN1C(=O)[C@@H]1CCCN1C(=O)[C@H](C)NC(=O)CNC(=O)[C@H](CO)NC(=O)[C@H](CO)NC(=O)[C@@H]1CCCN1C(=O)CNC(=O)CNC(=O)[C@H](C)NC(=O)[C@H](CCCCN)NC(=O)[C@H](CC(C)C)NC(=O)[C@H](Cc1c[nH]c2ccccc12)NC(=O)[C@H](CCC(=O)O)NC(=O)[C@@H](NC(=O)[C@H](Cc1ccccc1)NC(=O)[C@H](CC(=O)O)NC(=O)[C@H](CCCCN)NC(=O)[C@H](C)NC(=O)[C@H](C)NC(=O)[C@H](CCC(=O)O)NC(=O)[C@H](CCC(=O)O)NC(=O)[C@H](CCC(=O)O)NC(=O)[C@H](CCSC)NC(=O)[C@H](CCC(N)=O)NC(=O)[C@H](CCCCN)NC(=O)[C@H](CO)NC(=O)[C@H](CC(C)C)NC(=O)[C@H](CC(=O)O)NC(=O)[C@H](CO)NC(=O)[C@@H](NC(=O)[C@H](Cc1ccccc1)NC(=O)[C@@H](NC(=O)CNC(=O)[C@H](CCC(N)=O)NC(=O)[C@@H](CO)NC(=O)[C@@H](N)Cc1c[nH]cn1)[C@@H](C)O)[C@@H](C)O)[C@@H](C)CC)C(N)=O)C(=O)O
As for B4, in the assay with human glucagon receptor, the “EC50 hGlucagonR (cAMP formation)” value came to 0.323 nM. For the same molecule, the “EC50 hGLP-1R (cAMP formation)” value with human GLP-1 receptor is 0.0029 nM.

B5: SEQ ID NO: (112) (peptide)
peptide: H[dS]QGTFTSDLSKQMES[Aib]AAQLFIEWLKAGGPSSGAPPPSK([γGlu-Palmitoyl])-NH2
modifications: N-terminus assumed
SMILES: CCCCCCCCCCCCCCCC(=O)N[C@@H](CCC(=O)NCCCC[C@H](NC(=O)[C@H](CO)NC(=O)[C@@H]1CCCN1C(=O)[C@@H]1CCCN1C(=O)[C@@H]1CCCN1C(=O)[C@H](C)NC(=O)CNC(=O)[C@H](CO)NC(=O)[C@H](CO)NC(=O)[C@@H]1CCCN1C(=O)CNC(=O)CNC(=O)[C@H](C)NC(=O)[C@H](CCCCN)NC(=O)[C@H](CC(C)C)NC(=O)[C@H](Cc1c[nH]c2ccccc12)NC(=O)[C@H](CCC(=O)O)NC(=O)[C@@H](NC(=O)[C@H](Cc1ccccc1)NC(=O)[C@H](CC(C)C)NC(=O)[C@H](CCC(N)=O)NC(=O)[C@H](C)NC(=O)[C@H](C)NC(=O)C(C)(C)NC(=O)[C@H](CO)NC(=O)[C@H](CCC(=O)O)NC(=O)[C@H](CCSC)NC(=O)[C@H](CCC(N)=O)NC(=O)[C@H](CCCCN)NC(=O)[C@H](CO)NC(=O)[C@H](CC(C)C)NC(=O)[C@H](CC(=O)O)NC(=O)[C@H](CO)NC(=O)[C@@H](NC(=O)[C@H](Cc1ccccc1)NC(=O)[C@@H](NC(=O)CNC(=O)[C@H](CCC(N)=O)NC(=O)[C@@H](CO)NC(=O)[C@@H](N)Cc1c[nH]cn1)[C@@H](C)O)[C@@H](C)O)[C@@H](C)CC)C(N)=O)C(=O)O
On to B5, for which the “EC50 hGlucagonR (cAMP formation)” value with human glucagon receptor amounted to 0.876 nM. Also, the “EC50 hGLP-1R (cAMP formation)” value with human GLP-1 receptor came out at 0.0097 nM.

B6: SEQ ID NO: (114) (peptide)
peptide: H[dS]QGTFTSDLSKQMESEAAQLFIEWLKAGGPSSGAPPPSK([γGlu-Palmitoyl])-NH2
modifications: N-terminus assumed
SMILES: CCCCCCCCCCCCCCCC(=O)N[C@@H](CCC(=O)NCCCC[C@H](NC(=O)[C@H](CO)NC(=O)[C@@H]1CCCN1C(=O)[C@@H]1CCCN1C(=O)[C@@H]1CCCN1C(=O)[C@H](C)NC(=O)CNC(=O)[C@H](CO)NC(=O)[C@H](CO)NC(=O)[C@@H]1CCCN1C(=O)CNC(=O)CNC(=O)[C@H](C)NC(=O)[C@H](CCCCN)NC(=O)[C@H](CC(C)C)NC(=O)[C@H](Cc1c[nH]c2ccccc12)NC(=O)[C@H](CCC(=O)O)NC(=O)[C@@H](NC(=O)[C@H](Cc1ccccc1)NC(=O)[C@H](CC(C)C)NC(=O)[C@H](CCC(N)=O)NC(=O)[C@H](C)NC(=O)[C@H](C)NC(=O)[C@H](CCC(=O)O)NC(=O)[C@H](CO)NC(=O)[C@H](CCC(=O)O)NC(=O)[C@H](CCSC)NC(=O)[C@H](CCC(N)=O)NC(=O)[C@H](CCCCN)NC(=O)[C@H](CO)NC(=O)[C@H](CC(C)C)NC(=O)[C@H](CC(=O)O)NC(=O)[C@H](CO)NC(=O)[C@@H](NC(=O)[C@H](Cc1ccccc1)NC(=O)[C@@H](NC(=O)CNC(=O)[C@H](CCC(N)=O)NC(=O)[C@@H](CO)NC(=O)[C@@H](N)Cc1c[nH]cn1)[C@@H](C)O)[C@@H](C)O)[C@@H](C)CC)C(N)=O)C(=O)O
For B6, in the assay with human glucagon receptor, the “EC50 hGlucagonR (cAMP formation)” value stood at 0.295 nM. The “EC50 hGLP-1R (cAMP formation)” value in the assay with human GLP-1 receptor was found to be 0.0031 nM.

(Values after patent publication US20130336893A1 (Sanofi, published 2013).)
